# System: Escherichia coli TOP10
# Assay: shrunken log2 fold change of peptide-encoding DNA abundance (4.5 h post-induction vs induction); higher = less antimicrobial activity (less host growth inhibition)
# Settings: time post-induction: 4.5 h; library: site-saturation at positions 5, 18, 19, 20
# 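Also: peptides expressed intracellularly from a pBAD plasmid library in pooled LB shake-flask culture, induced with 0.3% L-arabinose, DNA abundance read by NGS, three biological replicates, DESeq2 with apeglm shrinkage.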
row,Sequence,shrunken log2 fold change
1,RRIRYRPPRLPRPRPRPAGWPRP,0.366
2,RRIRPRPPRLPRPRPRPQVMPRP,-0.286
3,RRIRKRPPRLPRPRPRPYWWPRP,-0.454
4,RRIRGRPPRLPRPRPRPWRPPRP,0.376
5,RRIRYRPPRLPRPRPRPPTDPRP,-0.181
6,RRIRDRPPRLPRPRPRPIKSPRP,-0.236
7,RRIRPRPPRLPRPRPRPNGHPRP,-0.0534
8,RRIRMRPPRLPRPRPRPSFGPRP,0.0121
9,RRIRMRPPRLPRPRPRPKWCPRP,0.0391
10,RRIRVRPPRLPRPRPRPVDIPRP,0.0216
11,RRIRARPPRLPRPRPRPVHFPRP,0.396
12,RRIRCRPPRLPRPRPRPHRQPRP,-0.19
13,RRIRDRPPRLPRPRPRPCFNPRP,-0.134
14,RRIRMRPPRLPRPRPRPYFPPRP,-0.213
15,RRIRRRPPRLPRPRPRPVIVPRP,-0.114
16,RRIRYRPPRLPRPRPRPWQVPRP,-0.09
17,RRIRNRPPRLPRPRPRPLDDPRP,-0.0578
18,RRIRIRPPRLPRPRPRPRTNPRP,-0.159
19,RRIRGRPPRLPRPRPRPMAMPRP,0.138
20,RRIRGRPPRLPRPRPRPVLEPRP,0.795
21,RRIRCRPPRLPRPRPRPKSDPRP,0.0327
22,RRIRKRPPRLPRPRPRPTESPRP,0.00281
23,RRIRMRPPRLPRPRPRPTNHPRP,0.0232
24,RRIRKRPPRLPRPRPRPVKDPRP,0.0491
25,RRIRMRPPRLPRPRPRPFRIPRP,0.0254

row,Sequence,shrunken log2 fold change
1,RRIRPRPPRLPRPRPRPWRDPRP,-0.00123
2,RRIRERPPRLPRPRPRPTTYPRP,-0.8
3,RRIRKRPPRLPRPRPRPDHLPRP,-0.0896
4,RRIRLRPPRLPRPRPRPQGIPRP,-0.0354
5,RRIRDRPPRLPRPRPRPNKHPRP,-0.425
6,RRIRGRPPRLPRPRPRPRPMPRP,1.51
7,RRIRIRPPRLPRPRPRPMYLPRP,-0.249
8,RRIRSRPPRLPRPRPRPEDYPRP,-0.00134
9,RRIRHRPPRLPRPRPRPTGKPRP,-0.00448
10,RRIRCRPPRLPRPRPRPAFYPRP,-0.146
11,RRIRLRPPRLPRPRPRPNSFPRP,-0.191
12,RRIRVRPPRLPRPRPRPSVEPRP,-0.0446
13,RRIRPRPPRLPRPRPRPLSPPRP,-0.113
14,RRIRQRPPRLPRPRPRPWNAPRP,0.00391
15,RRIRPRPPRLPRPRPRPNSAPRP,0.204
16,RRIRNRPPRLPRPRPRPQCTPRP,-0.123
17,RRIRDRPPRLPRPRPRPMDTPRP,-0.0196
18,RRIRPRPPRLPRPRPRPAKTPRP,-0.168
19,RRIRERPPRLPRPRPRPELEPRP,0.276
20,RRIRYRPPRLPRPRPRPAGVPRP,0.0619
21,RRIRHRPPRLPRPRPRPTFFPRP,0.0852
22,RRIRKRPPRLPRPRPRPEESPRP,0.0563
23,RRIRHRPPRLPRPRPRPHSIPRP,-0.318
24,RRIRFRPPRLPRPRPRPRGDPRP,0.477
25,RRIRKRPPRLPRPRPRPQRDPRP,0.858

row,Sequence,shrunken log2 fold change
1,RRIRHRPPRLPRPRPRPWQSPRP,-0.0359
2,RRIRIRPPRLPRPRPRPLDGPRP,0.0631
3,RRIRQRPPRLPRPRPRPMRVPRP,0.189
4,RRIRIRPPRLPRPRPRPGTYPRP,-0.0378
5,RRIRFRPPRLPRPRPRPDWFPRP,-0.32
6,RRIRKRPPRLPRPRPRPLKYPRP,0.072
7,RRIRWRPPRLPRPRPRPQNLPRP,-0.103
8,RRIRHRPPRLPRPRPRPSFNPRP,-0.583
9,RRIRYRPPRLPRPRPRPIAGPRP,-0.107
10,RRIRGRPPRLPRPRPRPPMKPRP,0.138
11,RRIRDRPPRLPRPRPRPITPPRP,-0.117
12,RRIRLRPPRLPRPRPRPGGQPRP,0.319
13,RRIRFRPPRLPRPRPRPLQGPRP,0.0475
14,RRIRDRPPRLPRPRPRPKTPPRP,-0.00153
15,RRIRQRPPRLPRPRPRPRNWPRP,-0.0692
16,RRIRSRPPRLPRPRPRPWANPRP,0.0508
17,RRIRERPPRLPRPRPRPAYQPRP,0.0953
18,RRIRARPPRLPRPRPRPKNPPRP,0.196
19,RRIRFRPPRLPRPRPRPQFRPRP,-0.174
20,RRIRRRPPRLPRPRPRPSHQPRP,0.0351
21,RRIRKRPPRLPRPRPRPLAKPRP,0.614
22,RRIRPRPPRLPRPRPRPLAWPRP,0.439
23,RRIRCRPPRLPRPRPRPPTGPRP,0.232
24,RRIRERPPRLPRPRPRPVTRPRP,-0.0559
25,RRIRPRPPRLPRPRPRPWVNPRP,-0.11

# Reference: the supplement of paper PMC9112550, “Optimization of the antimicrobial peptide Bac7 by deep mutational scanning” (BMC Biology, 2022)
